Experiments:
Colo320siRNA-ctrl cells = assay: Annexin V-APC apoptosis test with or without PFTα pretreatment; assay type: cell-based, human; settings: 20 μg/ml, 5 h
Protocol: In order to correlate the induction of apoptosis with p53 expression, the Colo320siRNA-ctrl cells were pretreated for 18 h with a chemical inhibitor of p53, pifithrin-α, at a dose of 27 μM (PFTα, Sigma). After pretreatment, the cells are washed twice with 3 ml of PBS and placed in a 24-well plate, at a rate of 100 000 cells/well in 1 ml of RPMI-10% FCS. Non-pretreated cells are placed under the same conditions. The cells are incubated for 5 h with a control murine isotype antibody (BZ1) or ITAC-B1 at 20 μg/ml and the apoptosis is measured as described above.
FIG. 14 represents the results of the apoptosis-induction experiments carried out with the Colo320siRNA-ctrl cells pretreated or not pretreated with PFTα. The percentage of cells labelled with Annexin V-APC is indicated on the y-axis, the cell culture conditions are indicated on the x-axis (control consisting of medium, control consisting of medium supplemented with a control isotype antibody -BZ1-, test consisting of medium supplemented with the ITAC-B1 antibody). The results of the tests carried out with cells pretreated with PFTα are represented in light grey, those of the tests carried out with non-pretreated cells are represented in dark grey.

[1] = tested on: Colo320^siRNA-ctrl cells (express NRP-2); assay: MTT assay for tumour cell proliferation; assay type: cell-based, human; settings: 5 μg/ml antibody; 24, 48 or 72 hours
Text: (§1) The MTT proliferation assay is based on the reduction of 3-(4,5-dimethylthiazol-2-yl)-2,5-diphenyltetrazolium bromide), by the mitochondrial succinate dehydrogenase of active live cells, to give formazan. The coloration intensity (OD) induced by this reaction is proportional to the number of live cells present during the assay, and to the metabolic activity thereof.
(§2) 4000 cells per well of Colo320^siRNA-ctrl cells (control cells transfected with an empty vector) or of Colo320^siRNA-NRP-2 cells (transfected with an siRNA targeting NRP-2), in 100 μl of DMEM medium containing 10% of inactivated FCS, were seeded into a 96-well Maxisorp plate. After adhesion of the cells, 5 μg/ml of ITAC-B anti-NRP-2 antibody or 5 μg/ml of control antibody were added. After culture for 24, 48 or 72 hours, 10 p. 1 of MTT reconstituted at 5 mg/ml in PBS were added to each culture well. The plates were then incubated for 3 hours in the dark, at 37° C. and 5% CO2, and centrifuged, and then the supernatant was removed. 200 p. 1 of DMSO were then added to each well. The optical density was read within an hour, at 570 nm, after shaking with the plate. The assay was carried out in triplicate.
(§3) Panels A and B of FIG. 11 represent, respectively, the results obtained in the proliferation assay carried out with the Colo320^siRNA-ctrl or Colo320^siRNA-NRP-2 cells. […]

[2] = tested on: Colo320^siRNA-NRP-2 cells (not expressing NRP-2); assay: MTT assay for tumour cell proliferation; assay type: cell-based, human; settings: 5 μg/ml antibody; 24, 48 or 72 hours
Text: as §1, §2, §3

[3] = molecular target: T1, neuropilin-2 on HT29-NRP-2 tumour cells (Homo sapiens, UniProt O60462); assay: Competition between VEGFa and ITAC-B1 for recognition of neuropilin-2 (flow cytometry); assay type: binding; settings: preincubation with VEGF 1000 ng/ml for 15 minutes
T1 construct: expressed in transfected cells; host or cells: HT29 (human colorectal cancer) and P815 (murine mastocytoma) cells, G418-selected
T1 sequence (O60462 21-931): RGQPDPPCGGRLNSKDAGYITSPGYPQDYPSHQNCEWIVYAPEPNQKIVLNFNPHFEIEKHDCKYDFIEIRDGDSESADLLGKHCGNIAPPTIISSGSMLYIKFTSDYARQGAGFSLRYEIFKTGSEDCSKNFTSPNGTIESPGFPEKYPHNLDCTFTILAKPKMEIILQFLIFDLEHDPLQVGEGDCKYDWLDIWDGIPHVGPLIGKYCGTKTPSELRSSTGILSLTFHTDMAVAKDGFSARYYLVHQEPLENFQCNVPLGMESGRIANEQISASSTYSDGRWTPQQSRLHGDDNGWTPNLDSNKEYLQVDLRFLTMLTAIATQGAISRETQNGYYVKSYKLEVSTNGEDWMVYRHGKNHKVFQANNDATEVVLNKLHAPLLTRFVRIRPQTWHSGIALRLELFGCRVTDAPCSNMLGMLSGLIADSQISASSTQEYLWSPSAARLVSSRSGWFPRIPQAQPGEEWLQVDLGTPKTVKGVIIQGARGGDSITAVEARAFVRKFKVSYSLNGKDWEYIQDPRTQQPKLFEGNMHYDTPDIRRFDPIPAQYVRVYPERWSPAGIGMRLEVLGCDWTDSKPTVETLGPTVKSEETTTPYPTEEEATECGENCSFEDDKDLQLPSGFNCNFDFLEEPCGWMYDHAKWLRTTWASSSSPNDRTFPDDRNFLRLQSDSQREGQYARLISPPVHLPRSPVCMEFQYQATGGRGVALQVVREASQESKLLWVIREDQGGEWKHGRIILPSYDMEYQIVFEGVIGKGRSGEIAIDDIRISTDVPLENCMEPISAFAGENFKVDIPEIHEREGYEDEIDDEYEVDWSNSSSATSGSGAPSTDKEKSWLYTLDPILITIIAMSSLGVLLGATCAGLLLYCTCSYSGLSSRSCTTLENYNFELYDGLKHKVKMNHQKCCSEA
Protocol: These cells were then incubated with the ITAC-B1 antibody or with a control isotype antibody (BZ1 antibody), and analysed by flow cytometry as described in Example 2 above.

AKT protein = assay: Western blotting of AKT and its phosphorylation; assay type: cell-based, human; settings: 20 μg/ml, 24 hours; HT29-NRP-2 and Colo320^siRNA-ctrl cells; treated versus not treated
Protocol: The possible effect of the ITAC-B1 antibody on the degree of phosphorylation of a VEGF receptor (VEGFR1), and also on the phosphorylation of the AKT protein which is activated by means of the VEGF receptors, was studied on HT29-NRP-2 and Colo320^siRNA-ctrl tumour cells.
The cells were cultured for 24 hours in RPMI medium+10% FCS in the presence of the BZ1 control antibody at 20 μg/ml, of ITAC-B1 at 20 μg/ml or of 5-FU at 50 μg/ml. A “nontreated cell” control was added (“medium” control). The cells were then isolated and lysed, and the phosphorylation of VEGFR-1 and of AKT was evaluated by Western blotting on the cell protein extracts, using antibodies directed against nonphosphorylated VEGFR1 (anti-VEGFR1 rabbit polyclonal antibody) or phosphorylated VEGFR1 (anti-phospho-VEGFR1^Tyr1213 rabbit polyclonal antibody, R&D systems) or antibodies directed against nonphosphorylated AKT (rabbit polyclonal antibody C67E7, Cell Signaling technology) or phosphorylated AKT (anti-phospho-AKT^Ser473 rabbit polyclonal antibody DE-9, Cell Signaling technology). The results are represented in FIGS. 16 and 17.

B1: ITAC-B1: anti-human neuropilin-2 murine monoclonal antibody, VH SEQ ID No. 2, VL SEQ ID No. 4, produced by hybridoma CNCM 1-4054 (antibody, listed as Mus musculus, V domains shown)
VH: EVKLQESGAELVKPGASVKLSCTVSGFNIKDTYIHWVIQRPEQGLEWLGRIDPANGNTKYDPKFQGKATITADTSSNTAYLQLSSLTSEDTAVYYCARWAVVGDYWGQGTTLTVSS
VL: YCDHPLYKFLHVSAGDRVTITCKASQSVSDDVAWYQQKPGQSPKLLIYSASNRYTGVPDRFTGSGYGTDFTFTISTVQPEDLAVYFCQQDYSSPTFGSGTKLELK
B1 was tested, and the “percentage of cells labelled with Annexin V-APC” value (Colo320siRNA-ctrl cells; cells pretreated 18 h with PFTα 27 μM) was “approximately 28%”, the “percentage of cells labelled with Annexin V-APC” value (Colo320siRNA-ctrl cells; non-pretreated cells) was 41% and the “proliferation (OD at 570 nm)” value [1] was “less than that of the cells alone and that observed in the presence of the control antibody”. For the same molecule, the “proliferation (OD at 570 nm)” value [2] was “identical to that of the control cells and to that observed in the presence of the control antibody”, the “binding to the tumour cells in the presence of VEGFa” value [3] was “does not prevent the binding of ITAC-B1 to the tumour cells” and the “amount of AKT and its phosphorylation status” value (AKT protein) was “similar”.

Reference: patent publication US8722043B2, “Induction of p53 expression by neutralization of neuropilin-2 for the treatment of cancers” (Diaclone, priority 2008, dated 2014)
